Results as given in publication PMC3919625.

Target: 2G12 IgG monomer (human)
Experiment: SEC

B1: soluble neonatal Fc receptor (FcRn) (receptor)
chain 1: AEPRLPLMYHLAAVSDLSTGLPSFWATGWLGAQQYLTYNNLRQEADPCGAWIWENQVSWYWEKETTDLKSKEQLFLEAIRTLENQINGTFTLQGLLGCELAPDNSSLPTAVFALNGEEFMRFNPRTGNWSGEWPETDIVGNLWMKQPEAARKESEFLLTSCPERLLGHLERGRQNLEWKEPPSMRLKARPGNSGSSVLTCAAFSFYPPELKFRFLRNGLASGSGNCSTGPNGDGSFHAWSLLEVKRGDEHHYQCQVEHEGLAQPLTVDLDSPARSS
chain 2: IQKTPQIQVYSRHPPENGKPNFLNCYVSQFHPPQIEIELLKNGKKIPNIEMSDLSFSKDWSFYILAHTEFTPTETDVYACRVKHVTLKEPKTVTWDRDM
stoichiometry N (FcRn per 2G12 monomer): 2
